We go through seven molecules from patent US20200231691A1 (Hoffmann-La Roche, published 2020).

One assay concerns the target T1, murine EpCAM (murine, UniProt Q99JW5 24-315).
T1 construct: Stably expressed on CT26muEpCAM cl25 cells; also called muEpCAM; CT26muEpCAM cells
T1 sequence: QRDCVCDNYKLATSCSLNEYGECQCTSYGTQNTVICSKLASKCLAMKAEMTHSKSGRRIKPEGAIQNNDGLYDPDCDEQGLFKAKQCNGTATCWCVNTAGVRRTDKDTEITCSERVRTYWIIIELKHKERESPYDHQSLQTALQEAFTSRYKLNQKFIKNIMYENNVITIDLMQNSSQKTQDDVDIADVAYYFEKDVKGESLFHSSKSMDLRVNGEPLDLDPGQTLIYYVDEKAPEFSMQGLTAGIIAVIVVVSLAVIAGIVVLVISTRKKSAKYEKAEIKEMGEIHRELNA
The experiment in a line: flow cytometry, muEpCAM+ CT26muEpCAM cells. On the procedure:
(§1) The binding to cell surface murine EpCAM was analysed using mouse EpCAM-positive CT26muEpCAM c125 cells, which stably expresses murine EpCAM. The specificity of binding was analysed by determination of binding to muEpCAM-negative cell line CT26muFAP, which stably expresses murine FAP.
(§2) For analysis of binding of the antigen binding molecules, 0.5×10⁵ CT26muEpCAM or 0.5×10⁵ CT26muFAP cells were added to wells of round-bottomed suspension cell 96-well plates (greiner bio-one, cellstar, Cat. No. 650185). For discrimination of live and dead cells, samples were stained with Zombie Aqua Viability Dye (Biolegend, Cat. No 423102) in PBS for 10 minutes at room temperature. Cells were then washed once with FACS buffer and subsequently stained for 90 minutes at 4° C. in the dark in 50 μL/well 4° C.
(§3) Plates were finally resuspended in 85 μL/well FACS-buffer and acquired the same day using 4-laser LSR-II cytometer (BD Bioscience with DIVA software).
On the technique in general: A flow cytometer gives signals particle by particle.

In a further assay the target is T2, murine FAP (murine, UniProt P97321 1-761).
T2 construct: whole, on cells; CT26muFAP served as the muEpCAM-negative specificity control cell line; also called muFAP; CT26muFAP cells
T2 sequence (looked up): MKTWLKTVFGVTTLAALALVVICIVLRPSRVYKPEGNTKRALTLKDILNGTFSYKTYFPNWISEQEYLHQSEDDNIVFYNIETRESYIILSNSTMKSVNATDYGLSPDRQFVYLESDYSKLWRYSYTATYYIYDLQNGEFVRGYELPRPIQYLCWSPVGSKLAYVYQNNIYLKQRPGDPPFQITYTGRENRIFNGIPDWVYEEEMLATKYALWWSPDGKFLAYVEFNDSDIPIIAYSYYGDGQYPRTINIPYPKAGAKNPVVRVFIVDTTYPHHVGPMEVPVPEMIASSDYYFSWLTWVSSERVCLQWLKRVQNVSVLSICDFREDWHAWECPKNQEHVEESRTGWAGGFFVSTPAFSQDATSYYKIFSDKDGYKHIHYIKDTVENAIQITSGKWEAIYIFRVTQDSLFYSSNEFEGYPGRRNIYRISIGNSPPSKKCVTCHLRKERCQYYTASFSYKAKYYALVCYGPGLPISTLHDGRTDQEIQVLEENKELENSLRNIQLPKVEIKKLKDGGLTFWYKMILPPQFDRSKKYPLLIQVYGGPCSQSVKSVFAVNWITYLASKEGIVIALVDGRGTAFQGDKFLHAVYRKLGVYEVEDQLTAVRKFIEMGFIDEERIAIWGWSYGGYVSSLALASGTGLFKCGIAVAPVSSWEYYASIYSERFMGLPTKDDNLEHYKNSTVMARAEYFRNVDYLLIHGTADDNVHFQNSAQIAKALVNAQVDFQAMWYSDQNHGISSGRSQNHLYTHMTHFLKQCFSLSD
Description: flow cytometry on CT26muFAP cells, which stably express murine FAP. On the procedure: as §1, §2, §3

For assay [1], the target named is T3, biotinylated monomeric human OX40 antigen Fc(kih) fusion molecule (human, UniProt P0DOX5 223-449 = IgG part, biotinylated at the C-terminal Avi tag (BirA)).
T3 construct: also called biotinylated human OX40; hu OX40
The experiment in a line: ELISA, biotinylated human OX40 on neutravidin plates, Fab supernatants, anti-Flag/HRP. The procedure: Selections were carried out over 3 or 4 rounds using constant antigen concentrations of 100 nM. […] In rounds 2 and 4, in order to avoid enrichment of binders to neutravidin, capture of antigen: phage complexes was performed by addition of 5.4×10⁷ streptavidin-coated magnetic beads. […] Fab-containing bacterial supernatants were added and binding Fabs were detected via their Flag-tags using an anti-Flag/HRP secondary antibody. […] They were bacterially expressed in a 0.5 liter culture volume, affinity purified and further characterized by SPR-analysis using BioRad's ProteOn XPR36 biosensor.
On the technique in general: An ELISA detects its analyte on a solid surface through an enzyme-linked reagent.

Assay [2] addresses T4, human OX40 (human, UniProt P43489 29-277).
T4 construct: Recombinant on HeLa reporter cells in the NFkB assay; also called huOX40; CD134
T4 sequence: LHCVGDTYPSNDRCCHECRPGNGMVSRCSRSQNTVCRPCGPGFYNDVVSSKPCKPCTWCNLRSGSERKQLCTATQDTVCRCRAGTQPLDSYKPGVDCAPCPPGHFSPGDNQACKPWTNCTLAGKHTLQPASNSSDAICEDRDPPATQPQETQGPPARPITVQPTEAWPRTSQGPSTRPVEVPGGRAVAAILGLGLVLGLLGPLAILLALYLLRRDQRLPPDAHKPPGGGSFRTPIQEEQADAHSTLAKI
The experiment in a line: flow cytometry, activated human OX40+ CD4+ T cells. The procedure:
(§4) For discrimination of live and dead cells, samples were stained with Zombie Aqua Viability Dye (Biolegend, Cat. No. 423102) in DPBS for 10 minutes at room temperature. […] After three washes with excess FACS buffer, cells were stained for 30 minutes at 4° C. in the dark in 25 μL/well 4° C. FACS buffer containing a mixture of fluorescently labeled anti-human CD4 (clone RPA-T4, mouse IgG1 k, BioLegend, Cat. No. 300532), anti-human CD8 (clone RPa-T8, mouse IgG1k, BioLegend, Cat.-No. 3010441) and Fluorescein isothiocyanate (FITC)-conjugated AffiniPure anti-human IgG Fcγ-fragment-specific goat IgG F(ab′)2 fragment (Jackson ImmunoResearch, Cat. No. 109 096 098).

The target of assay [3] is T4, human OX40. Description: flow cytometry, activated human OX40+ CD8+ T cells. On the procedure: as §4
For a further assay, the target named is T5, human EpCAM (human, UniProt P16422 24-314).
T5 construct: Endogenous on KATO-III cells and stably expressed on NIH/3T3huEpCAM clone 44 cells; also called huEpCAM; KATO-III cells
T5 sequence: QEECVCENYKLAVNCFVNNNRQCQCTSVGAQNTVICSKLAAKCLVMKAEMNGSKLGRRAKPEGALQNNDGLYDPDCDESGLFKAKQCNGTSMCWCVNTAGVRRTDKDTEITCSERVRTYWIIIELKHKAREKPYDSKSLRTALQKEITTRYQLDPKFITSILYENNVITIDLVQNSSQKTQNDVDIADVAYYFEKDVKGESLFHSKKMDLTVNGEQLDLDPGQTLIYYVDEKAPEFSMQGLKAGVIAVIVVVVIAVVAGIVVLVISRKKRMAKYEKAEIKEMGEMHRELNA
Description: flow cytometry, huEpCAM+ KATO-III cells. The procedure: For discrimination of live and dead cells, samples were stained with Zombie Aqua Viability Dye (Biolegend, Cat. No 423102) in PBS for 10 minutes at room temperature. Cells were then washed once with FACS buffer and subsequently stained for 90 minutes at 4° C. in the dark in 50 μL/well 4° C.

B1: monospecific, bivalent anti-murine EpCAM IgG (parental bivalent anti-muEpCAM antibody) (antibody, V domains shown)
VH: EVQLAESGGGLVQPGRSMKLSCAASGFTFSNFPMAWVRQAPTKGLEWVATISTSGGSTYYRDSVKGRFTISRDNAKSTLYLQMNSLRSEDTATYYCTRTLYILRVFYFDYWGQGVMVTVSS
VL: DIQMTQSPASLSASLGETVSIECLASEGISNDLAWYQQKSGKSPQLLIYATSRLQDGVPSRFSGSGSGTRYSLKISGMQPEDEADYFCQQSYKYPWTFGGGTKLELK
notes: it was detected with anti-mouse IgG Fc; also called muEpCAM IgG; G8.8
On to B1, for which the midpoint of the response with murine EpCAM, the EC50, lay at 2.87 nM. Also, the binding result with murine FAP is recorded as “no binding”.

B2: anti-OX40 clone 17A9 (phage-derived Fab) (Fab, V domains shown)
VH: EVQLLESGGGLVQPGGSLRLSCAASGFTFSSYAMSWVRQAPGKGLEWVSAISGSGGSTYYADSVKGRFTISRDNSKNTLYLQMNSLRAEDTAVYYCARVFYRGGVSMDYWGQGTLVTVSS
VL: SSELTQDPAVSVALGQTVRITCQGDSLRSYYASWYQQKPGQAPVLVIYGKNNRPSGIPDRFSGSSSGNTASLTITGAQAEDEADYYCNSRVMPHNRVFGGGTKLTV
notes: Tested as a Flag-tagged Fab in bacterial supernatant (lambda-DP47 library); also called OX40 (17A9)
Regarding B2, the binding result in assay [1] was “binds”.

B3: anti-OX40 clone 20B7 (phage-derived Fab) (Fab, V domains shown)
VH: QVQLVQSGAEVKKPGSSVKVSCKASGGTFSSYAISWVRQAPGQGLEWMGGIIPIFGTANYAQKFQGRVTITADKSTSTAYMELSSLRSEDTAVYYCARVNYPYSYWGDFDYWGQGTTVTVSS
VL: DIQMTQSPSTLSASVGDRVTITCRASQSISSWLAWYQQKPGKAPKLLIYDASSLESGVPSRFSGSGSGTEFTLTISSLQPDDFATYYCQQYQAFSLTFGQGTKVEIK
notes: Tested as a Flag-tagged Fab in bacterial supernatant (DP88-4 library); also called OX40 (20B7)
For the molecule B3, in assay [1], the binding result is reported as “binds”.

B4: anti-OX40 clone 49B4 (phage-derived Fab) (Fab, V domains shown)
VH: QVQLVQSGAEVKKPGSSVKVSCKASGGTFSSYAISWVRQAPGQGLEWMGGIIPIFGTANYAQKFQGRVTITADKSTSTAYMELSSLRSEDTAVYYCAREYYRGPYDYWGQGTTVTVSS
VL: DIQMTQSPSTLSASVGDRVTITCRASQSISSWLAWYQQKPGKAPKLLIYDASSLESGVPSRFSGSGSGTEFTLTISSLQPDDFATYYCQQYSSQPYTFGQGTKVEIK
notes: Tested as a Flag-tagged Fab in bacterial supernatant (DP88-4 library); also called OX40 (49B4)
Consider B4, for which the binding result in assay [1] is given as “binds”.

B5: bispecific, tetravalent anti-human OX40, bivalent anti-human EpCAM 4+2 molecule (OX40 49B4/EpCAM 3-17I P329GLALA 4+2) (bispecific antibody, human IgG1, kappa, L234A L235A)
heavy: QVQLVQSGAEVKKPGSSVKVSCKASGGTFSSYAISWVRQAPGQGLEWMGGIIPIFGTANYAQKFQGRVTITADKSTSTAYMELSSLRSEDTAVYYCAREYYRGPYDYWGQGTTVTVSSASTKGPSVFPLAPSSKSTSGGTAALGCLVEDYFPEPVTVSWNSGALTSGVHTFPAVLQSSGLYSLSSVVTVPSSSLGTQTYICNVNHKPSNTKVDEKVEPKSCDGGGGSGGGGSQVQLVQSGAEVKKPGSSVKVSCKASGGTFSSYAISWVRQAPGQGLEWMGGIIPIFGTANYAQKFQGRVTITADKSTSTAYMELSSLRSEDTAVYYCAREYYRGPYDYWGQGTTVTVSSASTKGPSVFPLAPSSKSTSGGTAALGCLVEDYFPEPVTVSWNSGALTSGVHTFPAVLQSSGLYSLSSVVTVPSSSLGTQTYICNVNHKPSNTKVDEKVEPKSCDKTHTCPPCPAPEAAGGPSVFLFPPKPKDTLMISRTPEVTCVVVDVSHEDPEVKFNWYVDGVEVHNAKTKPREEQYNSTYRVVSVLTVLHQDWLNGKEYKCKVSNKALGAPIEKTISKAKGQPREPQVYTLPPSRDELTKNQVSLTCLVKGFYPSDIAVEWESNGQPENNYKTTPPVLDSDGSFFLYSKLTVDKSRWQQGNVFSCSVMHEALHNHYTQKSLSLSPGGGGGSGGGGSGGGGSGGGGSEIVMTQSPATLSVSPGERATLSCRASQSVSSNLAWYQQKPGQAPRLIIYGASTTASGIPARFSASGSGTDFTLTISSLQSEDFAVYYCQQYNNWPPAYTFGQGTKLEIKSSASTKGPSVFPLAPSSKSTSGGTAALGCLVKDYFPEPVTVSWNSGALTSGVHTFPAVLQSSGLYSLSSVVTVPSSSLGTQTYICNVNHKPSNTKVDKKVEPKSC
light 1: DIQMTQSPSTLSASVGDRVTITCRASQSISSWLAWYQQKPGKAPKLLIYDASSLESGVPSRFSGSGSGTEFTLTISSLQPDDFATYYCQQYSSQPYTFGQGTKVEIKRTVAAPSVFIFPPSDRKLKSGTASVVCLLNNFYPREAKVQWKVDNALQSGNSQESVTEQDSKDSTYSLSSTLTLSKADYEKHKVYACEVTHQGLSSPVTKSFNRGEC
light 2: QVQLVQSGAEVKKPGSSVKVSCKASGGTFSSYAISWVRQAPGQGLEWMGGIIPIFGTANYAQKFQGRVTITADESTSTAYMELSSLRSEDTAVYYCARGLLWNYWGQGTLVTVSSASVAAPSVFIFPPSDEQLKSGTASVVCLLNNFYPREAKVQWKVDNALQSGNSQESVTEQDSKDSTYSLSSTLTLSKADYEKHKVYACEVTHQGLSSPVTKSFNRGEC
notes: huIgG1 P329G LALA, no knob-into-hole; also called 4+2 huEpCAM; 4 + 2 anti-huOX40, anti-huEpCAM
Take B5: the figures for the 50% effective concentration (EC50) with human OX40 [2] and with human OX40 [3] were 0.01 nM and 0.04 nM, respectively.

B6: anti-OX40 clone 1G4 (phage-derived Fab) (Fab, V domains shown)
VH: QVQLVQSGAEVKKPGSSVKVSCKASGGTFSSYAISWVRQAPGQGLEWMGGIIPIFGTANYAQKFQGRVTITADKSTSTAYMELSSLRSEDTAVYYCAREYGSMDYWGQGTTVTVSS
VL: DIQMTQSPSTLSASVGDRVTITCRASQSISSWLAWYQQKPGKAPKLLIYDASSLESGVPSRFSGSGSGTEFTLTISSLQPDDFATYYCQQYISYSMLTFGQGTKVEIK
notes: Tested as a Flag-tagged Fab in bacterial supernatant (DP88-4 library); also called OX40 (1G4)
Take B6: the binding result in assay [1] is listed as “binds”.

B7: monospecific, bivalent anti-human EpCAM IgG (parental bivalent anti-human EpCAM antibody, clone 3-17I, Affitech) (antibody, V domains shown)
VH: QVQLVQSGAEVKKPGSSVKVSCKASGGTFSSYAISWVRQAPGQGLEWMGGIIPIFGTANYAQKFQGRVTITADESTSTAYMELSSLRSEDTAVYYCARGLLWNYWGQGTLVTVSS
VL: EIVMTQSPATLSVSPGERATLSCRASQSVSSNLAWYQQKPGQAPRLIIYGASTTASGIPARFSASGSGTDFTLTISSLQSEDFAVYYCQQYNNWPPAYTFGQGTKLEIK
notes: IgG; it was detected with an anti-human IgG secondary; also called huEpCAM IgG; 3-171
Consider B7, for which the concentration giving a half-maximal response (EC50) (in general, the midpoint of the concentration-response curve) in the assay with human EpCAM was 3.11 nM.
